From the supplement of paper PMC9170038

Tested on: MS2 coat protein
Test: apparent KD of MS2 coat protein; designed switch direction (-1 OFF switch, 1 ON switch): -1; higher = weaker reporter binding
Summary of the method: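 An oligonucleotide input, 200 uM small-molecule ligand, or no input was present during titration of SNAP-549-labelled MS2 coat protein, which was doubled from 0.7 or 1.5 nM to 3 µM. Designed RNA switches had been transcribed on Illumina chips by stalled E. coli RNA polymerase. Apparent KD per design is the median over clusters of curves fitted to normalised cluster fluorescence.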

[1] = Eterna round: R95, input ligand: FMN 200 uM
[2] = Eterna round: R95, input ligand: microRNA oligo, concentration not stated
[3] = Eterna round: R95, input ligand: none
[4] = input ligand: microRNA oligo, concentration not stated

Sequence | apparent KD of MS2 coat protein [1] | apparent KD of MS2 coat protein [2] | apparent KD of MS2 coat protein [3] | apparent KD of MS2 coat protein (input ligand: FMN 200 uM) | apparent KD of MS2 coat protein (input ligand: none) | apparent KD of MS2 coat protein [4]
GACUGAAUUUUGUUUGGUUACAUGAGGAUCACCCAUGUUGGUCUAAGAACAUGUCUUUUGUACGCUUGUCUUAUAUA [JR_SV3TOV1_Sub069] (puzzle: Sensor v3, turn-off variant 1) | 68.9 nM | 44.9 nM | 100 nM | – | – | –
CAGGGCAUAGGAUAUGCGGGUAAACACCAUGCAUUAGAAUGACAUGAGGAUCACCCAUGUAGAAGGAUGAUAGC [Eternabot (L1) Solution 98] (Eterna round: R97, puzzle: Exclusion 2) | – | – | – | 28.3 nM | 29.2 nM | –
CUGAGAAUAGGAUAUACUAACAAUGGAGUAGCUUCACGUCAACAUGAGGAUCACCCAUGUAGAAGGGUUAGCGG [Eternabot (L1) Solution 33] (Eterna round: R97, puzzle: Exclusion 2) | – | – | – | 25 nM | 30 nM | –
AACCUGAGGCAAAGCUUUAGGUGUACAUGAGGAUCACCCAUGUAGGAUAUGGUAGGCAAAGCUUACCAGAAGGACAUAAAGGUU [Mat - Exclusion NG 3 - Mod of JL - D45] (Eterna round: R96, puzzle: Exclusion NG 3) | – | – | – | 81.4 nM | 47.7 nM | 36.4 nM
CAAUAGAAAGGAUAUACAGUAGGCGUUGUGCUCGAGCACUCACAUGAGGAUCACCCAUGUAGAAGGUUCAGUUA [EX2 C.18] (Eterna round: R97, puzzle: Exclusion 2) | – | – | – | 27.9 nM | 17.7 nM | –
UUGUGAGGUGUAGGAUAUUGUUGUUGUUUUUAGCGAGAAGGACAUGAGGAUCACCCAUGUGUCGUGUUUUUUUUUUUUUUUUUU [simply blue] (Eterna round: R96, puzzle: Exclusion NG 1) | – | – | – | 78.9 nM | 59.1 nM | 93.5 nM
ACAAGCUUUGAGUUCGUCUUAUACACUCCUAAUAAGAAAACAUGAGGAUCACCCAUGUAAGAAAUAAGAACUCAUGU [Sesor Array 3 - Jieux - Sensor v3, turn-off variant 2] (puzzle: Sensor v3, turn-off variant 2) | 25.5 nM | 291 nM | 27.8 nM | – | – | –
CCAGCGUAUGUGAGGAUAUGCUGGUCCUUGGAUCAGCAGAAGGCACAUGAGGAUCACCCAUGUGGAAACGUUGA [Mod of JL 2 - Jieux - Brourd's mod of Exclusion 4] (Eterna round: R97, puzzle: Brourd's mod of Exclusion 4) | – | – | – | 44.9 nM | 19.9 nM | –
GCACGGAGUGUAGGAUAUCUGUGCGAUUAGCUCAGAGAAGGACACAUGAGGAUCACCCAUGUGUACCUCAACAUUAAUCCGUGC [Eli exng1 - 075] (Eterna round: R96, puzzle: Exclusion NG 1) | – | – | – | 10.1 nM | 10.1 nM | 6.62 nM
UUACGGAUAGAGGAUAUAUUAAGGAAGGUUUCGAUAGAAGGCUAGACAUGAGGAUCACCCAUGUAUAUUGGGAU [JR_Ex6_Sub073] (Eterna round: R97, puzzle: Exclusion 6) | – | – | – | 164 nM | 97.9 nM | –
AAGGGUACUUUCAGAACGACAUGAGGAUCACCCAUGUAGACUGAGGAUAUCUACUACUAAGGACGGGAGAAGGCAGUGUAAUGU [Ex NG3 #73] (Eterna round: R96, puzzle: Exclusion NG 3) | – | – | – | 13.8 nM | 15.2 nM | 10 nM
UCAAGCUUUAAGCGUGUGAACAUGAGGAUCACCCAUGUAUUUUUGGUUAGGAGUUCUGUAAGGGAUGCUCGUCUUAU [JR_SWV3TOV1_Sub093] (puzzle: Sensor v3, turn-off variant 1) | 37.4 nM | 47.5 nM | 50.7 nM | – | – | –
CUCAGUGGUGAGGAUAUGCGCGCCCAAUGGACGGUAGAAGGUACUACAUGAGGAUCACCCAUGUAGCGAAGAUU [Eternabot (L1) Solution 49] (Eterna round: R97, puzzle: Exclusion 6) | – | – | – | 15.9 nM | 15.8 nM | –
